Data published in the supplement of paper PMC7877785.
± gives the uncertainty stated by the source.

Assay: self-splicing fitness, log relative to wild type (ln ratio); higher = more splicing; Tetrahymena group I intron in knt gene, E. coli kanamycin selection, DiMSum; sequences stand for … in CUCUCU…GGAGGGAAAAGUUAUCAGGCAUGCACCUGGUAGCUAGUCUUUAAACCAAUAGAUUGCAUCGGUUUAAAAGGCAAGACCGUCAAAUUGCGGGAAAGGGGUCAACAGCCGUUCAGUACCAAGUCUCAGGGGAAACUUUGAGAUGGCCUUGCAAAGGGUAUGGUAAUAAGCUGACGGACAUGGUCCUAACCACGCAGCCAAGUCCUAAGUCAACAGAUCUUCUGUUGAUAUGGAUGCAGUUCACAGACUAAAUGUCGGUCGGGGAAGAUGUAUUCUUCUCAUAAGAUAUAGUCGGACCUCUCCUUAAUGGGAGCUAGCGGAUGAAGUGAUGCAACACUGGAGCCGCUGGGAACUAAUUUGUAUGCGAAAGUAUAUUGAUUAGUUUUGGAGUACUCGUGGUCG
In short: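 Library with all eight P1ex-region intron nucleotides randomised, intron inside the knt kanamycin-resistance gene on pET-22b(+), in E. coli BL21(DE3). Cells grew overnight at 37°C or 30°C on LB agar with or without 25 μg/mL kanamycin (plus 100 μg/mL carbenicillin, 50 μM IPTG, 0.2% rhamnose), in six replicate transformations. Pooled colonies were amplicon-sequenced on Illumina HiSeq 2500. DiMSum fitness is the error-weighted combination of wild-type-normalised replicate fold changes, kanamycin versus none.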

Sequence	self-splicing fitness (ln) (30 °C)	self-splicing fitness (ln) (37 °C)
AUAAAGCAAUAUUACGCAGA	-1.87 ± 0.093	-0.796 ± 0.11
AUAAAGCAAUAUUACGCCCU	0.347 ± 0.15	0.95 ± 0.18
AUAAAGCAAUAUUACGCGAC	-1.4 ± 0.13	-0.298 ± 0.13
AUAAAGCAAUAUUACGCUCG	0.147 ± 0.1	0.699 ± 0.13
AUAAAGCAAUAUUACGCUCU	0.0815 ± 0.089	0.0503 ± 0.1
AUAAAGCAAUAUUACGGACC	-0.681 ± 0.16	-0.941 ± 0.24
AUAAAGCAAUAUUACGGAGG	-3.18 ± 0.18	-1.67 ± 0.24
AUAAAGCAAUAUUACGGCAU	0.53 ± 0.098	-0.0243 ± 0.11
AUAAAGCAAUAUUACGGCCC	0.659 ± 0.39	0.503 ± 0.43
AUAAAGCAAUAUUACGGCCG	-0.128 ± 0.1	0.3 ± 0.16
AUAAAGCAAUAUUACGGCUU	-0.708 ± 0.1	-0.569 ± 0.12
AUAAAGCAAUAUUACGGGCA	-0.434 ± 0.077	-0.368 ± 0.08
AUAAAGCAAUAUUACGGGGG	-2.77 ± 0.28	-2.66 ± 0.28
AUAAAGCAAUAUUACGGUAG	-2.82 ± 0.1	-1.74 ± 0.12
AUAAAGCAAUAUUACGGUGA	-0.436 ± 0.09	-0.422 ± 0.11
AUAAAGCAAUAUUACGUCGU	-0.554 ± 0.046	0.314 ± 0.064
AUAAAGCAAUAUUACGUGAC	-2.94 ± 0.19	-1.57 ± 0.18
AUAAAGCAAUAUUACGUGAG	-1.27 ± 0.076	-1.07 ± 0.12
AUAAAGCAAUAUUACGUGCU	-1.29 ± 0.08	-0.736 ± 0.11
AUAAAGCAAUAUUACGUUAA	-1.62 ± 0.087	-1.16 ± 0.12
AUACAGCAAUAUUACGAACA	-1.78 ± 0.17	0.157 ± 0.14

Sequence	self-splicing fitness (ln) (30 °C)	self-splicing fitness (ln) (37 °C)
AUACAGCAAUAUUACGAAUA	-2.51 ± 0.12	-0.987 ± 0.11
AUACAGCAAUAUUACGACAU	0.131 ± 0.011	0.288 ± 0.032
AUACAGCAAUAUUACGACGC	-0.948 ± 0.13	0.227 ± 0.16
AUACAGCAAUAUUACGAGAU	-3.35 ± 0.14	-1.18 ± 0.11
AUACAGCAAUAUUACGAUAG	-2.57 ± 0.18	-3 ± 0.34
AUACAGCAAUAUUACGCAGC	-4.34 ± 0.45	-1.87 ± 0.19
AUACAGCAAUAUUACGCAUC	-3.69 ± 0.16	-2.8 ± 0.21
AUACAGCAAUAUUACGCCGC	-3.8 ± 0.27	-2.19 ± 0.2
AUACAGCAAUAUUACGCCUA	-1.1 ± 0.11	-0.472 ± 0.12
AUACAGCAAUAUUACGCUGU	-4.13 ± 0.36	-3.51 ± 0.33
AUACAGCAAUAUUACGGAAG	-3.36 ± 0.14	-2.21 ± 0.14
AUACAGCAAUAUUACGGAAU	-2.34 ± 0.1	-1.54 ± 0.13
AUACAGCAAUAUUACGGAGU	-1.72 ± 0.085	-1.72 ± 0.11
AUACAGCAAUAUUACGGAUG	-2.7 ± 0.2	-2.05 ± 0.14
AUACAGCAAUAUUACGGCAA	-0.488 ± 0.076	0.0743 ± 0.078
AUACAGCAAUAUUACGGCCC	-1.15 ± 0.19	-0.184 ± 0.28
AUACAGCAAUAUUACGGCGA	-1.08 ± 0.096	-0.781 ± 0.11
AUACAGCAAUAUUACGGGAC	-2.14 ± 0.15	-1.74 ± 0.17
AUACAGCAAUAUUACGGGGA	-2.98 ± 0.21	-2.3 ± 0.14
AUACAGCAAUAUUACGGGGC	-2.65 ± 0.12	-3.57 ± 0.2
AUACAGCAAUAUUACGUAGA	-2.11 ± 0.085	-0.327 ± 0.076
